From patent US20200024322A1 (Eli Lilly, published 2020)
Numbered stars: 1 amine (or outer) side, 2 acyl side, 3 side chain; on linkers, the order of the positions; unused ones are H or OH. Square brackets hold non-standard residues; d marks the D form. Side chains are listed from the residue outwards. Ends that are not written are not given here. * marks the point of attachment. C18 diacid = O=C(O)CCCCCCCCCCCCCCCCC(=O)*; γGlu = O=C(O)[C@H](CCC(=O)[*:2])N[*:1]; AEEA = NCCOCCOCC(=O)O; Aib = CC(C)(N)C(=O)O

T1: human GIP receptor (human, UniProt P48546 22-466)
T1 construct: whole, on cells; also called hGIPR; hGIP-R
T1 sequence (looked up): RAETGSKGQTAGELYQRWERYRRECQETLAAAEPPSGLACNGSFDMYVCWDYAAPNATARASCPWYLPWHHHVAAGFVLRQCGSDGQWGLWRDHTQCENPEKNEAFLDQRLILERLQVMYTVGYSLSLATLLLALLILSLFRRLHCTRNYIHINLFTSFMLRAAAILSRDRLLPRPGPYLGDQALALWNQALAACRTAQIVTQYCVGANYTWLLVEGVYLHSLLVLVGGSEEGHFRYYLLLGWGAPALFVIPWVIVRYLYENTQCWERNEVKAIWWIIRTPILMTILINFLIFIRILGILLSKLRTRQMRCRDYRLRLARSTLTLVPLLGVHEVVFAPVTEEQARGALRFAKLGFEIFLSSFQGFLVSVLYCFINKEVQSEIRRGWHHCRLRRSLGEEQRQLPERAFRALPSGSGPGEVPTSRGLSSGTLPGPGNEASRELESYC


What was measured:
human GIP receptor = biological target: T1, human GIP receptor; experiment: [125I]-GIP competition SPA, hGIPR membranes
Experimental: The binding buffer contains 25 mM HEPES, pH 7.4, 2.5 mM CaCl₂, 1 mM MgCl₂, 0.1% (w/v) bacitracin, 0.003% (w/v) TWEEN®-20, and Roche Complete™ Protease Inhibitors without EDTA. […] Plates are sealed and mixed on a plate shaker (setting 6) for 1 minute and read with a PerkinElmer Trilux MicroBeta® scintillation counter after 2.5 to 12 hours of incubation/settling time at room temperature.
(§1) Data are analyzed using four-parameter (curve maximum, curve minimum, IC₅₀, Hill slope) nonlinear regression routines (Genedata Screener, version 12.0.4, Genedata AG, Basal, Switzerland). […] Values for Kᵢ are reported as the geometric mean, with error expressed as the standard error of the mean (SEM) and n is equal to the number of independent replicates (determined in assays performed on different days). Geometric Means are calculated as follows: […]

human GLP-1 receptor = biological target: T2, human GLP-1 receptor (human, UniProt P43220 24-463); experiment: [125I]-GLP-1 competition SPA, hGLP-1R membranes
T2 construct: whole, on cells; also called hGLP-1R; hGLP1R
Experimental: The binding buffer contains 25 mM HEPES, pH 7.4, 2.5 mM CaCl₂, 1 mM MgCl₂, 0.1% (w/v) bacitracin, 0.003% (w/v) TWEEN®-20, and Roche Complete™ Protease Inhibitors without EDTA.
as §1

Ki (human GIP receptor)	Ki (human GLP-1 receptor)	Binder
0.0578 nM	3.03 nM	Y[Aib]EGTFTSDYSILLDKK([AEEA-AEEA-γGlu-C18 diacid])AQ[Aib]AFVEYLIEGGPSSG-NH2 (N-terminus assumed; SMILES CC[C@H](C)[C@H](NC(=O)[C@H](CC(C)C)NC(=O)[C@H](Cc1ccc(O)cc1)NC(=O)[C@H](CCC(=O)O)NC(=O)[C@@H](NC(=O)[C@H](Cc1ccccc1)NC(=O)[C@H](C)NC(=O)C(C)(C)NC(=O)[C@H](CCC(N)=O)NC(=O)[C@H](C)NC(=O)[C@H](CCCCNC(=O)COCCOCCNC(=O)COCCOCCNC(=O)CC[C@H](NC(=O)CCCCCCCCCCCCCCCCC(=O)O)C(=O)O)NC(=O)[C@H](CCCCN)NC(=O)[C@H](CC(=O)O)NC(=O)[C@H](CC(C)C)NC(=O)[C@H](CC(C)C)NC(=O)[C@@H](NC(=O)[C@H](CO)NC(=O)[C@H](Cc1ccc(O)cc1)NC(=O)[C@H](CC(=O)O)NC(=O)[C@H](CO)NC(=O)[C@@H](NC(=O)[C@H](Cc1ccccc1)NC(=O)[C@@H](NC(=O)CNC(=O)[C@H](CCC(=O)O)NC(=O)C(C)(C)NC(=O)[C@@H](N)Cc1ccc(O)cc1)[C@@H](C)O)[C@@H](C)O)[C@@H](C)CC)C(C)C)C(=O)N[C@@H](CCC(=O)O)C(=O)NCC(=O)NCC(=O)N1CCC[C@H]1C(=O)N[C@@H](CO)C(=O)N[C@@H](CO)C(=O)NCC(N)=O) [Example 298]
0.734 nM	54.3 nM	Y[Aib]EGTFTSDYSILLDKK([AEEA-AEEA-γGlu-C18 diacid])AQ[Aib]AFLEYLIEGGPSSG-NH2 (N-terminus assumed; SMILES CC[C@H](C)[C@H](NC(=O)[C@H](CC(C)C)NC(=O)[C@H](Cc1ccc(O)cc1)NC(=O)[C@H](CCC(=O)O)NC(=O)[C@H](CC(C)C)NC(=O)[C@H](Cc1ccccc1)NC(=O)[C@H](C)NC(=O)C(C)(C)NC(=O)[C@H](CCC(N)=O)NC(=O)[C@H](C)NC(=O)[C@H](CCCCNC(=O)COCCOCCNC(=O)COCCOCCNC(=O)CC[C@H](NC(=O)CCCCCCCCCCCCCCCCC(=O)O)C(=O)O)NC(=O)[C@H](CCCCN)NC(=O)[C@H](CC(=O)O)NC(=O)[C@H](CC(C)C)NC(=O)[C@H](CC(C)C)NC(=O)[C@@H](NC(=O)[C@H](CO)NC(=O)[C@H](Cc1ccc(O)cc1)NC(=O)[C@H](CC(=O)O)NC(=O)[C@H](CO)NC(=O)[C@@H](NC(=O)[C@H](Cc1ccccc1)NC(=O)[C@@H](NC(=O)CNC(=O)[C@H](CCC(=O)O)NC(=O)C(C)(C)NC(=O)[C@@H](N)Cc1ccc(O)cc1)[C@@H](C)O)[C@@H](C)O)[C@@H](C)CC)C(=O)N[C@@H](CCC(=O)O)C(=O)NCC(=O)NCC(=O)N1CCC[C@H]1C(=O)N[C@@H](CO)C(=O)N[C@@H](CO)C(=O)NCC(N)=O) [Example 299]
0.107 nM	5.09 nM	Y[Aib]EGTFTSDYSILLDKK([AEEA-AEEA-γGlu-C18 diacid])AQ[Aib]EFIEYLIEGG-NH2 (N-terminus assumed; SMILES CC[C@H](C)[C@H](NC(=O)[C@H](CC(C)C)NC(=O)[C@H](Cc1ccc(O)cc1)NC(=O)[C@H](CCC(=O)O)NC(=O)[C@@H](NC(=O)[C@H](Cc1ccccc1)NC(=O)[C@H](CCC(=O)O)NC(=O)C(C)(C)NC(=O)[C@H](CCC(N)=O)NC(=O)[C@H](C)NC(=O)[C@H](CCCCNC(=O)COCCOCCNC(=O)COCCOCCNC(=O)CC[C@H](NC(=O)CCCCCCCCCCCCCCCCC(=O)O)C(=O)O)NC(=O)[C@H](CCCCN)NC(=O)[C@H](CC(=O)O)NC(=O)[C@H](CC(C)C)NC(=O)[C@H](CC(C)C)NC(=O)[C@@H](NC(=O)[C@H](CO)NC(=O)[C@H](Cc1ccc(O)cc1)NC(=O)[C@H](CC(=O)O)NC(=O)[C@H](CO)NC(=O)[C@@H](NC(=O)[C@H](Cc1ccccc1)NC(=O)[C@@H](NC(=O)CNC(=O)[C@H](CCC(=O)O)NC(=O)C(C)(C)NC(=O)[C@@H](N)Cc1ccc(O)cc1)[C@@H](C)O)[C@@H](C)O)[C@@H](C)CC)[C@@H](C)CC)C(=O)N[C@@H](CCC(=O)O)C(=O)NCC(=O)NCC(N)=O) [Example 271]

Continued, binder first:

Binder	Ki (human GIP receptor)	Ki (human GLP-1 receptor)
Y[Aib]EGTFTSDYSILLDKK([AEEA-AEEA-γGlu-C18 diacid])AQ[Aib]DFIEYLIEGGPSSG-NH2 (N-terminus assumed; SMILES CC[C@H](C)[C@H](NC(=O)[C@H](CC(C)C)NC(=O)[C@H](Cc1ccc(O)cc1)NC(=O)[C@H](CCC(=O)O)NC(=O)[C@@H](NC(=O)[C@H](Cc1ccccc1)NC(=O)[C@H](CC(=O)O)NC(=O)C(C)(C)NC(=O)[C@H](CCC(N)=O)NC(=O)[C@H](C)NC(=O)[C@H](CCCCNC(=O)COCCOCCNC(=O)COCCOCCNC(=O)CC[C@H](NC(=O)CCCCCCCCCCCCCCCCC(=O)O)C(=O)O)NC(=O)[C@H](CCCCN)NC(=O)[C@H](CC(=O)O)NC(=O)[C@H](CC(C)C)NC(=O)[C@H](CC(C)C)NC(=O)[C@@H](NC(=O)[C@H](CO)NC(=O)[C@H](Cc1ccc(O)cc1)NC(=O)[C@H](CC(=O)O)NC(=O)[C@H](CO)NC(=O)[C@@H](NC(=O)[C@H](Cc1ccccc1)NC(=O)[C@@H](NC(=O)CNC(=O)[C@H](CCC(=O)O)NC(=O)C(C)(C)NC(=O)[C@@H](N)Cc1ccc(O)cc1)[C@@H](C)O)[C@@H](C)O)[C@@H](C)CC)[C@@H](C)CC)C(=O)N[C@@H](CCC(=O)O)C(=O)NCC(=O)NCC(=O)N1CCC[C@H]1C(=O)N[C@@H](CO)C(=O)N[C@@H](CO)C(=O)NCC(N)=O) [Example 320]	0.136 nM	5.17 nM
Y[Aib]EGTFTSDYSILLDEK([AEEA-AEEA-γGlu-C18 diacid])AQ[Aib]AFIEYLIEGG-NH2 (N-terminus assumed; SMILES CC[C@H](C)[C@H](NC(=O)[C@H](CC(C)C)NC(=O)[C@H](Cc1ccc(O)cc1)NC(=O)[C@H](CCC(=O)O)NC(=O)[C@@H](NC(=O)[C@H](Cc1ccccc1)NC(=O)[C@H](C)NC(=O)C(C)(C)NC(=O)[C@H](CCC(N)=O)NC(=O)[C@H](C)NC(=O)[C@H](CCCCNC(=O)COCCOCCNC(=O)COCCOCCNC(=O)CC[C@H](NC(=O)CCCCCCCCCCCCCCCCC(=O)O)C(=O)O)NC(=O)[C@H](CCC(=O)O)NC(=O)[C@H](CC(=O)O)NC(=O)[C@H](CC(C)C)NC(=O)[C@H](CC(C)C)NC(=O)[C@@H](NC(=O)[C@H](CO)NC(=O)[C@H](Cc1ccc(O)cc1)NC(=O)[C@H](CC(=O)O)NC(=O)[C@H](CO)NC(=O)[C@@H](NC(=O)[C@H](Cc1ccccc1)NC(=O)[C@@H](NC(=O)CNC(=O)[C@H](CCC(=O)O)NC(=O)C(C)(C)NC(=O)[C@@H](N)Cc1ccc(O)cc1)[C@@H](C)O)[C@@H](C)O)[C@@H](C)CC)[C@@H](C)CC)C(=O)N[C@@H](CCC(=O)O)C(=O)NCC(=O)NCC(N)=O) [Example 269]	0.152 nM	7.1 nM
Y[Aib]EGTFTSDYSILLDKK([AEEA-AEEA-γGlu-C18 diacid])AQ[Aib]EFIEYLIAGG-NH2 (N-terminus assumed; SMILES CC[C@H](C)[C@H](NC(=O)[C@H](CC(C)C)NC(=O)[C@H](Cc1ccc(O)cc1)NC(=O)[C@H](CCC(=O)O)NC(=O)[C@@H](NC(=O)[C@H](Cc1ccccc1)NC(=O)[C@H](CCC(=O)O)NC(=O)C(C)(C)NC(=O)[C@H](CCC(N)=O)NC(=O)[C@H](C)NC(=O)[C@H](CCCCNC(=O)COCCOCCNC(=O)COCCOCCNC(=O)CC[C@H](NC(=O)CCCCCCCCCCCCCCCCC(=O)O)C(=O)O)NC(=O)[C@H](CCCCN)NC(=O)[C@H](CC(=O)O)NC(=O)[C@H](CC(C)C)NC(=O)[C@H](CC(C)C)NC(=O)[C@@H](NC(=O)[C@H](CO)NC(=O)[C@H](Cc1ccc(O)cc1)NC(=O)[C@H](CC(=O)O)NC(=O)[C@H](CO)NC(=O)[C@@H](NC(=O)[C@H](Cc1ccccc1)NC(=O)[C@@H](NC(=O)CNC(=O)[C@H](CCC(=O)O)NC(=O)C(C)(C)NC(=O)[C@@H](N)Cc1ccc(O)cc1)[C@@H](C)O)[C@@H](C)O)[C@@H](C)CC)[C@@H](C)CC)C(=O)N[C@@H](C)C(=O)NCC(=O)NCC(N)=O) [Example 297]	0.0958 nM	2.98 nM
